From patent US20220332804A1 (CSL INNOVATION, published 2022) come the findings set out here.

Common to all, as to assay: SPR, KD relative to WT C2;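 note: biacore SPR at 37 °C, anti-C2 mAbs captured via immobilised goat anti-human IgG, C2 alanine or serine surface mutants as analytes, 1:1 model fitted, double-referenced sensograms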
(In general: In SPR one partner is held on a chip, and binding of the other changes the refractive index at the surface.)

In one assay the target is T1, human C2 E490A (human, UniProt P06681 21-752).
T1 sequence: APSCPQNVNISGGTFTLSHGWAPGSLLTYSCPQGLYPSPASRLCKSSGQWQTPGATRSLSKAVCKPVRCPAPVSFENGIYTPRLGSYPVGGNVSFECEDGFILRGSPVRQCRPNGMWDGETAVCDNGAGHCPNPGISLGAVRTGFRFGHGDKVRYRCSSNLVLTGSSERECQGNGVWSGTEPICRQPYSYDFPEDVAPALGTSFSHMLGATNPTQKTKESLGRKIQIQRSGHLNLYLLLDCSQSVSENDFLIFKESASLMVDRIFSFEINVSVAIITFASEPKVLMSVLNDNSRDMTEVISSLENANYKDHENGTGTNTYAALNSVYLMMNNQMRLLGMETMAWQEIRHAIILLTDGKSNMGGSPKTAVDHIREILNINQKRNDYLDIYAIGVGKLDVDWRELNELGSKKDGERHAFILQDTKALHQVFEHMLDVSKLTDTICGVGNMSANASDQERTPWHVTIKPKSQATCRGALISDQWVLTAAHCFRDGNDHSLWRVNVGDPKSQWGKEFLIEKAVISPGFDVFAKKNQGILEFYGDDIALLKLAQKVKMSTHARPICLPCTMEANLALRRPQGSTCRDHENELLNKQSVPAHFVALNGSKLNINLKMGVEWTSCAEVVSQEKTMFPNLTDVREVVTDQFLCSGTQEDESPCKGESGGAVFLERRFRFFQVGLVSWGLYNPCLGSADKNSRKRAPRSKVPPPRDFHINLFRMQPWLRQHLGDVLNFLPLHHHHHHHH

The target of a further assay is T2, human C2 F437A (human, UniProt P06681 21-752).
T2 sequence: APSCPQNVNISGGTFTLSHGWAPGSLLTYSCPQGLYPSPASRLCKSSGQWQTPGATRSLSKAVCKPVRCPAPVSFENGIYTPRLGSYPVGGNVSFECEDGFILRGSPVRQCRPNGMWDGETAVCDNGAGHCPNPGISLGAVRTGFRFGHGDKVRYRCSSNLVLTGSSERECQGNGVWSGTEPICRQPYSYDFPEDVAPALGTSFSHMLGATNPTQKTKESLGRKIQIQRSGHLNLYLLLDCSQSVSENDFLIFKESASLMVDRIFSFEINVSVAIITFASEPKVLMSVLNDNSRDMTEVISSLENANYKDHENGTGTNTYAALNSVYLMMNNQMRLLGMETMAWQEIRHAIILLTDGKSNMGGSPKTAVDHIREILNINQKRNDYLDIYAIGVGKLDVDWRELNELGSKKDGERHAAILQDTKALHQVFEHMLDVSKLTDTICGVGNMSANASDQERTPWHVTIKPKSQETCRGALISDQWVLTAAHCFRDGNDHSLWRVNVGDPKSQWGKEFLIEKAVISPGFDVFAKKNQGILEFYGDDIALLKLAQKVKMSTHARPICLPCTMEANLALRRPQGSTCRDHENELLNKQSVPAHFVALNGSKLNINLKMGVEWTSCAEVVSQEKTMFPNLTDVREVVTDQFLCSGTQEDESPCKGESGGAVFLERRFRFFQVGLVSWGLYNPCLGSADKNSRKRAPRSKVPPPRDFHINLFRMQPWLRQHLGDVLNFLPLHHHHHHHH

In another assay the target is T3, human C2 W420A (human, UniProt P06681 21-752).
T3 sequence: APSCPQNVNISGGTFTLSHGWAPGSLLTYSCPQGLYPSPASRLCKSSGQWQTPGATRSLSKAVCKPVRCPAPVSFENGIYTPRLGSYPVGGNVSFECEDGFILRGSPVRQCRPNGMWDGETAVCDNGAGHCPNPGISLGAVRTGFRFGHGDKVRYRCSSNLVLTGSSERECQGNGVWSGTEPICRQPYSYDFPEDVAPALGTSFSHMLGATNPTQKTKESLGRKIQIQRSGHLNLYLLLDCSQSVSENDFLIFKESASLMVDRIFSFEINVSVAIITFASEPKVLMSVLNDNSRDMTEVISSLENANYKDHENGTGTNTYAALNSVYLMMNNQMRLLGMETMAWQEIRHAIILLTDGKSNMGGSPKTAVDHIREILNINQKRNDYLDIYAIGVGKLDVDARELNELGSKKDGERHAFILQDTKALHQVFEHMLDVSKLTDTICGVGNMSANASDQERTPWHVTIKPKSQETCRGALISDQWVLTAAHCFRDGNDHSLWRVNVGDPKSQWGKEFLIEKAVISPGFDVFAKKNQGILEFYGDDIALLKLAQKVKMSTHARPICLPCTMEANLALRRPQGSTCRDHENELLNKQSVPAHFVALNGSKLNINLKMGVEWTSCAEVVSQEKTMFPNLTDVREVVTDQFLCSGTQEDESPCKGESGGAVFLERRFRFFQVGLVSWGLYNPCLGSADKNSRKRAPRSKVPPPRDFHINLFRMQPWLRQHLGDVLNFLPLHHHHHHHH

A further assay addresses T4, human C2 V455A (human, UniProt P06681 21-752).
T4 sequence: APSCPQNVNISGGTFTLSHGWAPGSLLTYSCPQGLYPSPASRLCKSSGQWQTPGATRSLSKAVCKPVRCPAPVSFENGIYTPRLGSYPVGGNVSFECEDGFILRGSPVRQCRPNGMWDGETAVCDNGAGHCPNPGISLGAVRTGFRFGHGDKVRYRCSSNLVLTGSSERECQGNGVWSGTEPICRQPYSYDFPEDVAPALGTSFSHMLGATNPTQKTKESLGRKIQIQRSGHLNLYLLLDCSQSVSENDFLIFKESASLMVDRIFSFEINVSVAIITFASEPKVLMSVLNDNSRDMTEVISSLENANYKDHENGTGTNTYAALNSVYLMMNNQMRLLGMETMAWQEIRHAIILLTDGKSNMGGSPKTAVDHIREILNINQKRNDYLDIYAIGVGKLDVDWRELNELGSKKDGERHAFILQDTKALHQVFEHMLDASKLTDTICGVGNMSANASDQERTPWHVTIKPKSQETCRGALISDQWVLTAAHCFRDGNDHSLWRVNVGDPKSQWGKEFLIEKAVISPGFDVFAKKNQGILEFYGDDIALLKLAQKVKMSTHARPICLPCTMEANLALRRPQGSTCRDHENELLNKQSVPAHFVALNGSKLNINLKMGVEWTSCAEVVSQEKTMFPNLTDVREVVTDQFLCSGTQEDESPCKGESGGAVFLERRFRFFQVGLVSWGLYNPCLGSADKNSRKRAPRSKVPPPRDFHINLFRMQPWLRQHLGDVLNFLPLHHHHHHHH

B1: RF16-226 (antibody, human IgG4 S228P, lambda)
heavy: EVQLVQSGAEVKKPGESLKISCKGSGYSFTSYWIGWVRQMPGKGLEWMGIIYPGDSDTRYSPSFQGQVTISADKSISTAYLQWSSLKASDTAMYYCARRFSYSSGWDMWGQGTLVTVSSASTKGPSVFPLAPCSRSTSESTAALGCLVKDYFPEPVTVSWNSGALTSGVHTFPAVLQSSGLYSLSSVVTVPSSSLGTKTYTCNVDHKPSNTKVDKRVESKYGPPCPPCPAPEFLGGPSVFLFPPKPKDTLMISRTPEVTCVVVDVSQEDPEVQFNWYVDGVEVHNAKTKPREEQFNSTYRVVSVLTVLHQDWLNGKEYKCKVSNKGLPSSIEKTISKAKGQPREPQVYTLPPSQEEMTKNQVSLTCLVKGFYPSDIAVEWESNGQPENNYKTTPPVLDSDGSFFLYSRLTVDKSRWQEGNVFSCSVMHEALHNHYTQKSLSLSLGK
light: SYELTQPPSVSVSPGQTARITCSGDALTSKYVAWYQQKSGLAPLLVIYEDTRRPSGIPAKFSGSSSGSVATLTISGAHGDDEADYYCYSTDASGHQRVFGGGTKLTVLSQPKAAPSVTLFPPSSEELQANKATLVCLISDFYPGAVTVAWKADGSPVKAGVETTKPSKQSNNKYAASSYLSLTPEQWKSHRSYSCQVTHEGSTVEKTVAPTECS
notes: pH-dependent anti-C2 antibody from a phage display library; also called WT
Turning to B1, the Fold diff in the assay with human C2 E490A came to 2 fold; with human C2 F437A it was 26 fold; in the assay with human C2 W420A, 2 fold; in the assay with human C2 V455A, 1 fold.
